These results are taken from publication PMC10117238, “Molecular mechanism underlying the increased risk of colorectal cancer metastasis caused by single nucleotide polymorphisms in LI-cadherin gene” (Scientific Reports, 2023).

The target of series [1] is LI-cadherin EC1-2 (Homo sapiens) (UniProt Q12864). The series can be described thus: SV-AUC. The conditions noted are these: cited from earlier work.
In series [2] the target is LI-cadherin EC1-4 (Homo sapiens) (UniProt Q12864). The series can be described thus: SV-AUC. The note with it: cited from earlier work.
The target of another series is T1, LI-cadherin EC1-2K115E (human).
T1 chain: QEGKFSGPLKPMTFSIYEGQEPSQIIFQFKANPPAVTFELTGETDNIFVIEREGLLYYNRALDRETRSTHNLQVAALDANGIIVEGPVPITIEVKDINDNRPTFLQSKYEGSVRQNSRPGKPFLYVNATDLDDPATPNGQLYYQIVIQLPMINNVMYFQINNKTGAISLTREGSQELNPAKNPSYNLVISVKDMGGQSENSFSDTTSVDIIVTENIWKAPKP
The series can be described thus: AUC; sedimentation velocity (SV-AUC), 20 °C, 42,000 rpm, UV detection; 1-120 µM EC1-4K115E or 1-60 µM EC1-2K115E; buffer A (10 mM HEPES-NaOH pH 7.5, 150 mM NaCl, 3 mM CaCl2); homodimer to monomers. The note with it: both partners purified.

Series [3] deals with the molecule itself. The description is as above.

On to LI-cadherin EC1-2 (from UniProt Q12864), for which the Kd in series [1] was 75 µM.

Turning to LI-cadherin EC1-4 (from UniProt Q12864), in series [2], the dissociation constant (Kd) was 39.8 µM.

B1: LI-cadherin EC1-2K115E (domain or fragment)
chain: QEGKFSGPLKPMTFSIYEGQEPSQIIFQFKANPPAVTFELTGETDNIFVIEREGLLYYNRALDRETRSTHNLQVAALDANGIIVEGPVPITIEVKDINDNRPTFLQSKYEGSVRQNSRPGKPFLYVNATDLDDPATPNGQLYYQIVIQLPMINNVMYFQINNKTGAISLTREGSQELNPAKNPSYNLVISVKDMGGQSENSFSDTTSVDIIVTENIWKAPKP
modifications: N-glycosylated (Expi293F expression, N-glycans on EC2); Ca2+-bound (3 mM CaCl2). Limits by convention: mature N-terminus Gln23 (as in 7CYM) to end of UniProt Cadherin 2 domain (244). C-terminal …
For B1, in the series with LI-cadherin EC1-2K115E, the affinity, expressed as Kd, was 343 µM and the “stoichiometry N” value was 2.

B2: LI-cadherin EC1-4K115E (domain or fragment, human)
chain: QEGKFSGPLKPMTFSIYEGQEPSQIIFQFKANPPAVTFELTGETDNIFVIEREGLLYYNRALDRETRSTHNLQVAALDANGIIVEGPVPITIEVKDINDNRPTFLQSKYEGSVRQNSRPGKPFLYVNATDLDDPATPNGQLYYQIVIQLPMINNVMYFQINNKTGAISLTREGSQELNPAKNPSYNLVISVKDMGGQSENSFSDTTSVDIIVTENIWKAPKPVEMVENSTDPHPIKITQVRWNDPGAQYSLVDKEKLPRFPFSIDQEGDIYVTQPLDREEKDAYVFYAVAKDEYGKPLSYPLEIHVKVKDINDNPPTCPSPVTVFEVQENERLGNSIGTLTAHDRDEENTANSFLNYRIVEQTPKLPMDGLFLIQTYAGMLQLAKQSLKKQDTPQYNLTIEVSDKDFKTLCFVQINVID
notes: Liver Intestine-cadherin (LI-cadherin, CDH17), human; the first four N-terminal extracellular cadherin repeats EC1-4, with the SNP change Lys115 to Glu (c.343A>G); Made in mammalian cells, N-glycosylated; K115E is a SNP variant found in patients, made here by site-directed mutagenesis; also called K115E of EC1-4; source: Expi293F, transfected (pcDNA3.4), purified from the supernatant (Ni-NTA, SEC)
As for B2, in series [3], the affinity, expressed as Kd, was 51.6 µM and the “stoichiometry N” value turned out to be 2.
